Data taken from article PMC5379955.

Target: ROD (human) (UniProt P50748)
Test: AUC

- stoichiometry N: 2
Substance: ROD, P50748 1-2209
